Assay results reported in patent US20260216379A1 (GEORGIA STATE UNIVERSITY RESEARCH FOUNDATION, published 2026).

Assays:
CXCR4 = target: T1, CXCR4 (UniProt P61073 1-352, limits assumed); experiment: binding to CXCR4 positive cells (FIGS. 47A-47B)
T1 construct: whole, on cells; also called chemokine receptor type 4; CXCR4 on Mel290 cells

PSMA [1] = target: T2, PSMA (UniProt Q04609 1-750, limits assumed); experiment: assay not given; presumably the ELISA on LNCaP cell lysate of FIG. 10
T2 construct: whole, on cells; also called PSMA in LNCaP cell lysate; PSMA on LNCaP cells
T2 sequence (Q04609 whole entry): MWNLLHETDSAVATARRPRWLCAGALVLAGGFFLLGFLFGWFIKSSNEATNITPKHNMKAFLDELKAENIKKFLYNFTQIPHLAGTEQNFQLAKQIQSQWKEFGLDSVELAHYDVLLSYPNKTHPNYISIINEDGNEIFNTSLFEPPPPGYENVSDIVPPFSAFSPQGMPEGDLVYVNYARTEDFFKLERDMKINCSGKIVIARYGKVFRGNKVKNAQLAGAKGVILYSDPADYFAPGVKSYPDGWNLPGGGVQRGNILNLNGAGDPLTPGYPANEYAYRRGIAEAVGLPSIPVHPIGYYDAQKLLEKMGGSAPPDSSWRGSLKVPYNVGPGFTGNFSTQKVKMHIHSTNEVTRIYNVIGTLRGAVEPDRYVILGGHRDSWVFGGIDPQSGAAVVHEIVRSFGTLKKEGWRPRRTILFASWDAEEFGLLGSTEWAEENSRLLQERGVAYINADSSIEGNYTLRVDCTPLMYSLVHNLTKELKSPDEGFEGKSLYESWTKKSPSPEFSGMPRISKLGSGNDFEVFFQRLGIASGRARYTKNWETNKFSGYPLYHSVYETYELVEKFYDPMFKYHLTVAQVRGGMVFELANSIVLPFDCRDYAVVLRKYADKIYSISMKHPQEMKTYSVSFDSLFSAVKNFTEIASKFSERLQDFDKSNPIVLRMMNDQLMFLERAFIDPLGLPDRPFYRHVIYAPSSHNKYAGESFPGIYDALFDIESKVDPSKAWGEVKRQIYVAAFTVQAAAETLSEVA

PSMA [2] = target: T2, PSMA; experiment: indirect ELISA on coated LNCaP cell lysate
Text: Briefly, LNCaP cell lysates were coated in a 96-well plate and 5% BSA was used as blocking agent. […] The interaction between ProCA32 variants and PSMA in cell lysates was quantified by ELISA using HRP-conjugated goat-anti-rabbit secondary antibody and one step ELISA kit.

collagen type I = collagen type I (mouse, UniProt P11087 152-1207; Q01149 86-1125); experiment: cell-based or functional assay
Chain of collagen type I (P11087 152-1207, chain 1 of 2): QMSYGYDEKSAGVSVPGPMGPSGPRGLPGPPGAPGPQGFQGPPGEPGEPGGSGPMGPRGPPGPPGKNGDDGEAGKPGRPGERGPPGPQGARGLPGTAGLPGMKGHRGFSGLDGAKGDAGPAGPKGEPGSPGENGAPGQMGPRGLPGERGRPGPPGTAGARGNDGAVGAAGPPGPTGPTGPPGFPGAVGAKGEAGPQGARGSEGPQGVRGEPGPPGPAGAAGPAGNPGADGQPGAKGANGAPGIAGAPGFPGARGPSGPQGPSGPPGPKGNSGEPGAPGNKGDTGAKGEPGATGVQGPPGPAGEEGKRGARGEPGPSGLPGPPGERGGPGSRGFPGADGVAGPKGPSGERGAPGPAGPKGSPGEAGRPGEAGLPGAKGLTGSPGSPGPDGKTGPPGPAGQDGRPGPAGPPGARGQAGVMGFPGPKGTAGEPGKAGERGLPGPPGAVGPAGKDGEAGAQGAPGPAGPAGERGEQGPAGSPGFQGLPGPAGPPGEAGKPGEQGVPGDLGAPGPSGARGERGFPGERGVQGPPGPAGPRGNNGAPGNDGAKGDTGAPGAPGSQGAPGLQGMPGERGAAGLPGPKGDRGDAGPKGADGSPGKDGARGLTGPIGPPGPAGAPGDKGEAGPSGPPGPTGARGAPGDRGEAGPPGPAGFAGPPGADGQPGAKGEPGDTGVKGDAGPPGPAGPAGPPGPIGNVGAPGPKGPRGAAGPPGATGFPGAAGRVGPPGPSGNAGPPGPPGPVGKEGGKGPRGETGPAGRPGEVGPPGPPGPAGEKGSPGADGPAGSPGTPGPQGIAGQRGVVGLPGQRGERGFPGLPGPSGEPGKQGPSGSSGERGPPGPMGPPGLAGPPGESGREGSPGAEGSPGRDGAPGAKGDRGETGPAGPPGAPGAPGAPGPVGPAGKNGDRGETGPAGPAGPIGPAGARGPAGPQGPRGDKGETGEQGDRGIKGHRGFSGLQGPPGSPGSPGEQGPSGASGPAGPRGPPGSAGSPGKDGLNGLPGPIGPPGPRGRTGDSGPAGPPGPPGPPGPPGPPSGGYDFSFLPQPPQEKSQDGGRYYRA
Chain of collagen type I (Q01149 86-1125, chain 2 of 2): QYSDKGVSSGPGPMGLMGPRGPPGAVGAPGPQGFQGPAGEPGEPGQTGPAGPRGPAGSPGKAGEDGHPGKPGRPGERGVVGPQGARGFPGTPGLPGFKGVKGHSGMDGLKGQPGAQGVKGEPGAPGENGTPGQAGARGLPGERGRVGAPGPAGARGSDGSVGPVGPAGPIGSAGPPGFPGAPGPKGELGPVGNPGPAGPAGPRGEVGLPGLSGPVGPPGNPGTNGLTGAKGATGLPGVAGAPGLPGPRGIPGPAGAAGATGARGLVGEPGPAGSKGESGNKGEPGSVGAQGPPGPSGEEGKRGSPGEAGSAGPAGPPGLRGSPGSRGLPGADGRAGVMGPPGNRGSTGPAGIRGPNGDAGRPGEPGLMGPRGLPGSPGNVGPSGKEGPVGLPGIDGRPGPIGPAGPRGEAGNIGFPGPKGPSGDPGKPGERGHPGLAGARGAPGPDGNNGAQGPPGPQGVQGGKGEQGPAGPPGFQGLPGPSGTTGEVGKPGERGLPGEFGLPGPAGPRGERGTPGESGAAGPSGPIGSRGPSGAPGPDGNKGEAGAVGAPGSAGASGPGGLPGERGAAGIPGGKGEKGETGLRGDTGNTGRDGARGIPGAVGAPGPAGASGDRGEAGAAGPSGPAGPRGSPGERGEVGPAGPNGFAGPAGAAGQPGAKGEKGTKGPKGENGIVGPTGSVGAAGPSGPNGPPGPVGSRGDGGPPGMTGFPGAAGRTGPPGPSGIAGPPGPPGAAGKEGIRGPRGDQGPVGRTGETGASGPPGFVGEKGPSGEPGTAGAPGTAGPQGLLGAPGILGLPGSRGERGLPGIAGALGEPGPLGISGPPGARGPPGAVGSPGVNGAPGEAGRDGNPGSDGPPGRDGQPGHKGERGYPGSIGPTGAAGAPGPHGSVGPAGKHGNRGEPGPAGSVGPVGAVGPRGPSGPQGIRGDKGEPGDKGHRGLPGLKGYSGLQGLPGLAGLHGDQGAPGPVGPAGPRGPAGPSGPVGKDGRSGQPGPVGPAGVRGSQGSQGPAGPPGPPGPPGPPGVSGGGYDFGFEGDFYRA

T1 sequence (P61073 whole entry): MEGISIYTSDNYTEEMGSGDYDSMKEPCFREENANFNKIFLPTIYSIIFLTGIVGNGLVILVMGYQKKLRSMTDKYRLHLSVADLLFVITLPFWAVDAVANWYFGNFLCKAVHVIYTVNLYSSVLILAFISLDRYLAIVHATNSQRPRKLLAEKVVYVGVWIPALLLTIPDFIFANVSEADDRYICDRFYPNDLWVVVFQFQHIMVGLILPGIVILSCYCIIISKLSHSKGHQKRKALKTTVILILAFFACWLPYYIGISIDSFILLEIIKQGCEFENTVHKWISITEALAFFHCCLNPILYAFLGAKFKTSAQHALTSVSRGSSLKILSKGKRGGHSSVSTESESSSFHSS

B1: ProCA32.V1.CXCR4 (designed binder)
chain: MSMTDLLNAEDIKKAVGAFSATDSFDHKKFFQMVGLKKKSADDVKKVFHMLDKDKDGFIEEDELGFILKGFSPDARDLSAKETKMLMAAGDKDGDGKIGVEEWSTLVAESLGASWHRPDKCCLGYQKRPLP
notes: also called ProCA32.CXCR4
For B1, the Kd (CXCR4) was 1.84 µM.

B2: ProCA32.564.PSMA (designed binder, not shown: small tags and cut ends)
chain: MSMTDLLNAEDIKKAVGAFSATDSFDHKKFFQMVGLKKKSADDVKKVFHMLDKDKDGFIEEDELGFILKGFSPDARDLSAKETKMLMAAGDKDGDGKIGVEEWSTLVAESLSFFSCWLRRSFSLT
notes: Fluorescein-labelled in the anisotropy assays, unlabelled in the ELISA
Binder B2 has an EC50 (PSMA [1]) of 0.52 µM.

B3: ProCA32 (other)
chain: SMTDLLNAEDIKKAVGAFSATDSFDHKKFFQMVGLKKKSADDVKKVFHMLDKDKDGFIEEDELGFILKGFSPDARDLSAKETKMLMAAGDKDGDGKIGVEEWSTLVAES
notes: Control without a targeting moiety; also called non-targeted ProCA32; ProCA32 itself without targeting moiety
B3: no binding (PSMA [2]).

B4: rat ProCA32.collagen (designed binder)
chain: MSMTDLLSAEDIKKAIGAFTAADSFDHKKFFQMVGLKKKSADDVKKVFHILDKDKDGFIEEDELGSILKGFSSDARDLSAKETKTLMAAGDKDGDGKIGVEEWSTLVAESGGGKKWHCYTYFPHHYCVYG
modifications: Used as a contrast agent loaded with Gd3+; the metal ions are not carried by the letters.
B4 was tested, and the “Gd^3+ injection dosage per gram of tissue in fibrotic liver, against rProCA32” value (collagen type I) was roughly 2 fold.
